From publication PMC3753650
pKd: −log10 of the molar value.

How the values were obtained:
[1] = target: T1, RNA polymerase sigma70 holoenzyme, molecular beacon derivative (Ec Esigma70 beacon) (Escherichia coli) (UniProt P0A7Z4+P0A7Z4+P0A8V2+P0A8T7+P0A800+P00579); experiment: RNAP beacon fluorescence; conditions: Equilibrium RNAP molecular beacon fluorescence, 25 C and 1 nM RNAP in competition assays, buffer, salt and pH not in material, Kd error 20% (>0.4 nM), ~50% …
[2] = target: T1, RNA polymerase sigma70 holoenzyme, molecular beacon derivative (Ec Esigma70 beacon) (Escherichia coli); experiment: competition; conditions: Equilibrium RNAP molecular beacon fluorescence; 25 C and 1 nM RNAP in competition assays; buffer, salt and pH not in material; Kd error 20% (>0.4 nM), ~50% …

Sequence: AAAAAAAGAATTTGACATCAGGAAAATTTTTTGGT (double strand) [probe 24]
- pKd [1]: 9.72

Sequence: AAAAAAAGAATTTGACATCAGGAAAATTTTTTGGT / AGCAACCAAAAAATTTTCCTGATGTCAAATTCTTTTTTT [probe 27]
- pKd [1]: > 10.00

Sequence: AAAAAAAGAATTTGACATCAGGAAAATTTTTTGGTTGCT (double strand) [probe 25]
- pKd [1]: 7.96

Sequence: AAAAAAAGAATTTGACATCAGGAAAATTTTTTGGTTGCT / ACCAAAAAATTTTCCTGATGTCAAATTCTTTTTTT [probe 26]
- pKd [1]: > 10.00

Sequence: GGAAAATTTTTTGGTATAAAAGA / ACCAAAAAATTTTCC [probe 9(-7A)]
- binding signal (fold weaker than probe 9) [1]: 710

Sequence: GGAAAATTTTTTGGTTTAATAGA / ACCAAAAAATTTTCC [probe 9(-11T)]
- binding signal (fold weaker than probe 9) [1]: 300

Sequence: TATAATGGGTTCAT [probe 30]
- pKd [1]: 7.14

Sequence: TATTTGACATCAGGAAAATTTTTCTGT (double strand) [probe 1]
- pKd [1]: 7.21

Sequence: TATTTGACATCAGGAAAATTTTTCTGTA / ATTATACAGAAAAATTTTCCTGATGTCAAATA [probe 29]
- binding signal (fold tighter than probe 19) [1]: 13

Sequence: TATTTGACATCAGGAAAATTTTTCTGTA / TTATACAGAAAAATTTTCCTGATGTCAAATA [probe 28]
- binding signal (fold tighter than probe 19) [1]: 5

Sequence: TATTTGACATCAGGAAAATTTTTCTGTAGTTA / ACAGAAAAATTTTCCTGATGTCAAATA [probe 10(-7A)]
- binding signal (fold weaker than probe 10) [1]: 8

Sequence: TATTTGACATCAGGAAAATTTTTCTGTATAA / ACAGAAAAATTTTCCTGATGTCAAATA [probe 5]
- binding signal (fold tighter than probe 2) [2]: 50

Sequence: TATTTGACATCAGGAAAATTTTTCTGTATAA / CAGAAAAATTTTCCTGATGTCAAATA [probe 31]
- binding signal (fold weaker than probe 5) [2]: 10

Sequence: TATTTGACATCAGGAAAATTTTTCTGTT / ACAGAAAAATTTTCCTGATGTCAAATA [probe 2(-11T)]
- binding signal (fold weaker than probe 2) [1]: 5

Sequence: TATTTGACATCAGGAAAATTTTTCTGTTGTTA / ACAGAAAAATTTTCCTGATGTCAAATA [probe 11(-7A)]
- binding signal (fold weaker than probe 11) [1]: 2.4

Sequence: TATTTGACATCAGGAAAATTTTTCTGTTT / ACAGAAAAATTTTCCTGATGTCAAATA [probe 3(-11T)]
- binding signal (fold weaker than probe 3) [1]: 5

Sequence: TATTTGACATCAGGAAAATTTTTCTGTTTAA (double strand) [probe 22(-11T)]
- pKd [1]: 6.92

Sequence: TATTTGACATCAGGAAAATTTTTCTGTTTAA / ACAGAAAAATTTTCCTGATGTCAAATA [probe 5(-11T)]
- binding signal (fold weaker than probe 5) [1]: 200

Sequence: TATTTGACATCAGGAAAATTTTTCTGTTTAAA / ACAGAAAAATTTTCCTGATGTCAAATA [probe 6(-11T,-7A)]
- binding signal (fold weaker than probe 6(-11T)) [1]: 110

Sequence: TATTTGACATCAGGAAAATTTTTCTGTTTAAT (double strand) [probe 23(-11T)]
- pKd [1]: 7.80

Sequence: TATTTGACATCAGGAAAATTTTTCTGTTTAAT / ACAGAAAAATTTTCCTGATGTCAAATA [probe 6(-11T)]
- binding signal (fold weaker than probe 6) ([1]; ~120-fold tighter than 5(-11T)): 1000

Sequence: TATTTGACATCAGGAAAATTTTTTGGA (double strand) [probe 15(-12A)]
- binding signal (fold weaker than probe 15) [1]: 4

Sequence: TATTTGACATCAGGAAAATTTTTTGGAATAA / TCCAAAAAATTTTCCTGATGTCAAATA [probe 17(-12A)]
- binding signal (fold tighter than 16(-12A)) ([1]; strongly weaker than probe 17): 6

Sequence: TATTTGACATCAGGAAAATTTTTTGGAATAAT / TCCAAAAAATTTTCCTGATGTCAAATA [probe 18(-12A)]
- binding signal (fold tighter than 17(-12A)) [1]: 300

Sequence: TATTTGCTTTCAGGAAAATTTTTCTGTATAAA / CAGAAAAATTTTCCTGAAAGCAAATA [probe 8(-7A)]
- binding signal (fold weaker than probe 8) [1]: 210

Sequence: TGGTTGACTTTTGCCAGATACTGAGGCTGGC / GCCTCAGTATCTGGCAAAAGTCAACCA [probe 13]
- pKd [1]: 7.00

Sequence: TGGTTGACTTTTGCCAGATACTGAGGCTGGCA / GCCTCAGTATCTGGCAAAAGTCAACCA [probe 12(-7A)]
- pKd [1]: 7.00

Sequence: TGGTTGACTTTTGCCAGATACTGAGGCTGGCT / GCCTCAGTATCTGGCAAAAGTCAACCA [probe 12]
- pKd [1]: 7.96
